The values below come from patent EP1591450A1, “CONJUGATE FOR RETENTION IN BLOOD AND CANCER TISSUE-SPECIFIC DRUG DELIVERY” (YAMANOUCHI PHARMACEUTICAL CO. LTD., priority 2003, dated 2004).

Where a SMILES comes first, the peptide text is derived from it. The star is where a group is joined. X1 = O=C(OCC1c2ccccc2-c2ccccc21)N(CC(=O)*)C(=O)OCC1c2ccccc2-c2ccccc21; Fmoc = O=C(OCC1c2ccccc2-c2ccccc21)*

The target in one series is T1, MMP-2 (Homo sapiens, UniProt P08253).
T1 sequence (P08253 110-660): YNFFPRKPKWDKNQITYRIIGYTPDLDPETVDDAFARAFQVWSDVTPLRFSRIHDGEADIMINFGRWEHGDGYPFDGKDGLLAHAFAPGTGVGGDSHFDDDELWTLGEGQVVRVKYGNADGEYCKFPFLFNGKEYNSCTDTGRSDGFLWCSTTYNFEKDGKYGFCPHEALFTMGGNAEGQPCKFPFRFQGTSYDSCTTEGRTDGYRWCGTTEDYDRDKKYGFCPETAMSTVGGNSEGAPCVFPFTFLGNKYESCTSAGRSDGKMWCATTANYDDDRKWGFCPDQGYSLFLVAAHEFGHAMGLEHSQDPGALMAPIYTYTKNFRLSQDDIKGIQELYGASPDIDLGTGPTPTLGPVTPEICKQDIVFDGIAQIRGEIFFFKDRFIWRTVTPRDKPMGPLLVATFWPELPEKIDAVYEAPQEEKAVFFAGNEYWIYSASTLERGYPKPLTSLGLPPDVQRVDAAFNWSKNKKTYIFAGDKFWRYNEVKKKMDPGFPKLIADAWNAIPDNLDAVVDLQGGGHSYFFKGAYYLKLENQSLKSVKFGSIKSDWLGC
The experiment in a line: Enzymatic degradation of peptide and peptide-PEG by MMP-2. In kind it is biochemical. To be noted: beginning of reaction (15 minutes), 37°C, Tris buffer pH 7.5; Figure 4. The method, then:
After mixing in 0.5 ml of sample in 0.5 ml of acetonitrile, the mixture was filtered and gel filtration was performed.
MMP-2 solution was diluted with Tris buffer. […] The final concentration of MMP-2 was 0.34 µg/ml. […] The Fmoc-GPQGIAGWG-PEG in the filtrate was separated and quantitatively determined by gel filtration.

Series [1] in a line: Particle diameter determination of peptide-PEG micelles (NICOMP Model 370). In kind it is physicochemical. The method, then: The particle diameter of the micelles and the liposomes was determined with the NICOMP Model 370 (Particle Sizing Systems, Inc.).
Then particle diameter was determined by a laser diffraction particle diameter distribution determination device (NICOMP Model 370)(Table1).

A further series concerns aminopeptidase-1. The settings on record: per unit weight of enzyme and unit time, beginning (15 minutes) of reaction, 37°C, Tris buffer pH 7.5; MMP-2 0.17 µg/ml, aminopeptidase-1 10 µg/ml. The method, then:
(§1) Fmoc-[…] was dissolved in Tris buffer (100 mM Tris/100 mM NaCl/10 mM CaCl2/0.05% BRIJ35, pH 7.5) and adjusted to a pre-determined concentration. MMP-2, collagenase, carboxypeptidase A, aminopeptidase-1, and trypsin were each diluted or dissolved in Tris buffer. Each enzyme solution was added to Fmoc-[…] solution that had been heated to 37°C and incubated for a pre-determined time at 37°C. The final concentration of the enzymes was as shown below: MMP-2: 0.17 µg/ml, collagenase: 7 µg/ml, carboxypeptidase A: 10 µg/ml, aminopeptidase-1: 10 µg/ml, trypsin: 10 µg/ml. After a pre-determined time, the same amount of acetonitrile was added to the sample solutions and they were filtered with a 0.5 µm filter (Millex-LH MILIPORE).

The next series relates to collagenase. The settings on record: per unit weight of enzyme and unit time, beginning (15 minutes) of reaction, 37°C, Tris buffer pH 7.5; MMP-2 0.17 µg/ml, collagenase 7 µg/ml. The method, then: as §1
Another series concerns the target carboxypeptidase A (Homo sapiens, UniProt P15085). The settings on record: per unit weight of enzyme and unit time, beginning (15 minutes) of reaction, 37°C, Tris buffer pH 7.5; MMP-2 0.17 µg/ml, carboxypeptidase A 10 µg/ml. The method, then:
as §1

For the next series, the target named is T2, trypsin (Bos taurus, UniProt P00760).
T2 construct: gene PRSS1
T2 sequence (P00760 24-246): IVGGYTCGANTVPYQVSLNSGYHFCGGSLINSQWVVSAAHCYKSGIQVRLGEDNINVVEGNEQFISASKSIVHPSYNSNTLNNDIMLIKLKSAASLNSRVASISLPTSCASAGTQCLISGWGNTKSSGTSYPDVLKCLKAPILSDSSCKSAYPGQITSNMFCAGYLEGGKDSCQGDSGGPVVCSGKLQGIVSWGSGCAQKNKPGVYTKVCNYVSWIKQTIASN
The experiment in a line: Enzymatic degradation of peptide by trypsin. In kind it is biochemical. To be noted: trypsin 10 µg/ml, 37°C, Tris buffer pH 7.5. The method, then: as §1

Sequence of carboxypeptidase A (P15085 111-419): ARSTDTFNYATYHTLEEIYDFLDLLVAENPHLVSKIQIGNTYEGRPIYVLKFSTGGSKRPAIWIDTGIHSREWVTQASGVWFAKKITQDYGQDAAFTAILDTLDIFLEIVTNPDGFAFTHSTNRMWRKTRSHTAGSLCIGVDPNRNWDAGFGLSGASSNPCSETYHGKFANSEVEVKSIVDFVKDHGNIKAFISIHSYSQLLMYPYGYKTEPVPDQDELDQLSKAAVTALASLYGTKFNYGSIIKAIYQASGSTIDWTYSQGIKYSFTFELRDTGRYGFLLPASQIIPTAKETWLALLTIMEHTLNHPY

Take “9-fluorenylmethyloxycarbonyl (Fmoc)-glycyl-prolyl-glutamyl-glycyl-isoleucyl-alanyl-glycyl-tryptophanyl-glycyl (Gly-Pro-Gln-Gly-Ile-Ala-Gly-Trp-Gly)-amide propyl polyoxyethylene methyl ether (Fmoc-GPQGIAGWG-{amide propyl polyoxyethylene methyl ether}; not fully specified) [Fmoc-GPQGIAGWG-PEG]”: the “degradation rate by MMP-2 per unit weight of MMP-2 and unit time, peptide compared with peptide-PEG” value in the series with MMP-2 is listed as “virtually the same”. The Particle diameter in series [1] (Concentration 5 µM in Tris buffer pH 7.5) is on record as 232 nm; in series [1] (Concentration 10 µM in Tris buffer pH 7.5) it was 200 nm; in series [1] (Concentration 20 µM in Tris buffer pH 7.5) it was 205 nm; in series [1] (Concentration 50 µM in Tris buffer pH 7.5) it was 210 nm; in series [1] (Concentration 100 µM in Tris buffer pH 7.5), 237 nm. Also, in series [1] (at 5 µm or more), the “particle diameter of aggregate” value was “approximately 200 nm”. Besides, the critical micelle concentration in series [1] (concluded from particle diameter and laser scattering intensity, Tris buffer pH 7.5) is ~5 µM.
Consider `CC[C@H](C)[C@H](NC(=O)CNC(=O)[C@H](CCC(=O)O)NC(=O)[C@@H]1CCCN1C(=O)CN(C(=O)OCC1c2ccccc2-c2ccccc21)C(=O)OCC1c2ccccc2-c2ccccc21)C(=O)N[C@@H](C)C(=O)NCC(=O)N[C@@H](Cc1c[nH]c2ccccc12)C(=O)NCC(=O)O` [Fmoc-GPQGIAGWG, 9-fluorenylmethyloxycarbonyl (Fmoc)-glycyl-prolyl-glutamyl-glycyl-isoleucyl-alanyl-glycyl-tryptophanyl-glycine (Gly-Pro-Gln-Gly-Ile-Ma-Gly-Trp-Gly)] (X1-PEGIAGWG-OH), for which the “degradation rate by MMP-2 per unit weight of MMP-2 and unit time, peptide compared with peptide-PEG” value at MMP-2 is reported as “virtually the same”. In addition, the “degradation rate by MMP-2 relative to that of aminopeptidase-1” value with aminopeptidase-1 came to 14.2 x. In addition, the “degradation rate by MMP-2 relative to that of collagenase” value in the series with collagenase was found to be 26.9 x. The “degradation rate by MMP-2 relative to that of carboxypeptidase A” value on carboxypeptidase A was determined as 38.8 x. Further, the Degradation by trypsin entry at trypsin was “not observed”.
